Test results published in patent publication US20230312724A1 (KADMON, published 2023).

T1: human B7-H4-his (human, UniProt Q7Z7D3 25-259)
T1 construct: also called hB7-H4-his; hB7-H4 his; not shown: his tag
T1 sequence: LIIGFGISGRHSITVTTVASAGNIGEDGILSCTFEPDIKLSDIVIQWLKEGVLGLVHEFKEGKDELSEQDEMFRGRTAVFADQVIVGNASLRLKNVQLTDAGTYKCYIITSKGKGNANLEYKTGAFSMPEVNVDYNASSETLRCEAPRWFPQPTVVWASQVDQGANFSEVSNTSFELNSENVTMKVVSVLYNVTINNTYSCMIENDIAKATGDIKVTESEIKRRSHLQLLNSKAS

T2: mouse B7-H4-his (mouse, UniProt Q7TSP5 25-257)
T2 construct: also called mB7-H4-his; mB7-H4-His; not shown: his tag
T2 sequence: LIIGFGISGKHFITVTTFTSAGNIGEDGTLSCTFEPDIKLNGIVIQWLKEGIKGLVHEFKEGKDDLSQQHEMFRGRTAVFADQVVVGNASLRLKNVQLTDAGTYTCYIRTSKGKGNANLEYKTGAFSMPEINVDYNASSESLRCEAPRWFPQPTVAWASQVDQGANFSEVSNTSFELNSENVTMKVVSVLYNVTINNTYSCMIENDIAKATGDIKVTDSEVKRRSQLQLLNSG

T3: hB7-H4 (soluble human B7-H4, construct not named) (human, UniProt Q7Z7D3 25-259, limits assumed)
T3 construct: also called soluble hB7-H4
T3 sequence: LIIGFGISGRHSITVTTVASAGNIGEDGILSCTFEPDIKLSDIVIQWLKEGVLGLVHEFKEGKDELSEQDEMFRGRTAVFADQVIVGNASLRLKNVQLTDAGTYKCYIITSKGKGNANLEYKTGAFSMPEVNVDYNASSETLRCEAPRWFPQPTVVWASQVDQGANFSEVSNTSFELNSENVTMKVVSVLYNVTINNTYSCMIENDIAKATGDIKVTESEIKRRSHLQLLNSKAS

T4: mB7-H4 (soluble mouse B7-H4, construct not named) (mouse, UniProt Q7TSP5 25-257, limits assumed)
T4 sequence: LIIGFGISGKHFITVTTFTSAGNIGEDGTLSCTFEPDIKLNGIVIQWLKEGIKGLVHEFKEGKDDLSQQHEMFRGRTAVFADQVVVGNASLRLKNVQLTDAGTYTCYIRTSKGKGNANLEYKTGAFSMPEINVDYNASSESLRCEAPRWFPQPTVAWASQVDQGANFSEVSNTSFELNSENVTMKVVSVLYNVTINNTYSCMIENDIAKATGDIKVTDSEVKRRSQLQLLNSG

T5: human B7-H4 expressed on cells (human, UniProt Q7Z7D3 25-282)
T5 construct: Transfected CHO cells or tumor cell lines that carry hB7-H4; also called cellular hB7-H4
T5 sequence: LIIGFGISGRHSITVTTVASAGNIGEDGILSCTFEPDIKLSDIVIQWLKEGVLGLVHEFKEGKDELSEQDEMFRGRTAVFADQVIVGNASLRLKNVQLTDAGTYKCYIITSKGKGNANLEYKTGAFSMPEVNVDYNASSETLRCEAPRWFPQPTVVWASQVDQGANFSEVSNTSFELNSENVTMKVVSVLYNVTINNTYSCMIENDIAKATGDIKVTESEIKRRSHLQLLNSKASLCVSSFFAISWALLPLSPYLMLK

T6: mouse B7-H4 expressed on cells (mouse, UniProt Q7TSP5 25-257)
T6 construct: also called cellular mB7-H4; mB7-H4/CT26
T6 sequence: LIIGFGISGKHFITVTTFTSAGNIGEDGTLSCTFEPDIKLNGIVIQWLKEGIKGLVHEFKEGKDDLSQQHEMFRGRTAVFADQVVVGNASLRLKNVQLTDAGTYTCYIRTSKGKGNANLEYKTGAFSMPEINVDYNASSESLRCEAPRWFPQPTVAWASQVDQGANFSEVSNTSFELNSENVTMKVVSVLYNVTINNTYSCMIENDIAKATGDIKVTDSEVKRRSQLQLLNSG

B1: 24F4/24F4 (antibody, human IgG1, V domains shown)
VH: QVQLVQSGAEVKKPGSSVKVSCKASGYRFTGDYIHWVRQAPGQGLEWMGWMNPNSGNTGLAQKFQGRVTITADESTSTAYMELSSLRSEDTAVYYCARVLGFSGGMDVWGQGTTVTVSS
VL: DIVMTQSPLSLPVTPGEPASISCRSSQSLLHSNGYNYLDWYLQKPGQSPQLLIYAASSLRSGVPDRFSGSGSGTDFTLKISRVEAEDVGVYYCMQGTHWPPTFGQGTKLEIK
B2: 9E1/9E1 (antibody, V domains shown)
VH: QVQLVQSGAEVKKPGASVKVSCKASGYTFTGYYLHWVRQAPGQGLEWMGWINPNSGGTNSAQRFQGRVTMTRDTSTSTVYMELSSLRSEDTAVYYCARVRGYEGGMDVWGQGTTVTVSS
VL: not shown
B3: 5G6/5G6 (antibody, human IgG1, V domains shown)
VH: QVQLVQSGAEVKKPGASVKVSCKASGYTFTSYYMHWVRQAPGQGLEWLGWVNPNTGTTRFAQKFQGRVTMTRDTSTSTVYMELSSLRSEDTAVYYCARDANYYYGMDVWGQGTMVTVSS
VL: DIVMTQSPDSLAVSLGERATINCKSSQSVLYSSNNKNYLAWYQQKPGQPPKLLIYWASTRESGVPDRFSGSGSGTDFTLTISSLQAEDVATYYCQKYNSALPITFGQGTRLEIK
B4: 24B6/24B6 (antibody, human IgG1, V domains shown)
VH: QVQLVQSGAEVKKPGASVKVSCKASGYTFTGYYMHWVRQAPGQGLEWIGWMNPNSGDTGYAQKFQGRVTMTRDTSTSTVYMELSSLRSEDTAVYYCAKVGAYGGMDVWGQGTTVTVSS
VL: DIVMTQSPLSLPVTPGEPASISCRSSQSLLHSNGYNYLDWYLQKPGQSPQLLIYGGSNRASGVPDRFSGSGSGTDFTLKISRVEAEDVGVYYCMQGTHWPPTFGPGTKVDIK
B5: 30G4/30G4 (antibody, human IgG1, V domains shown)
VH: QVQLVQSGAEVKKPGASVKVSCKASGYTFSSYYMHWVRQAPGQGLEWMGWMNPNSGDTGYAQKFQGRVTMTRDTSTSTVYMELSSLRSEDTAVYYCARVPETGGMDVWGQGTTVTVSS
VL: DIVMTQSPLSLPVTPGEPASISCRSSQSLLHSNGYNYLDWYLQKPGQSPQLLIYGASSLHSGVPDRFSGSGSGTDFTLKISRVEAEDVGVYYCMQGTHWPPTFGQGTKVEIK
B6: 9D11/9D11 (antibody, human IgG1, V domains shown)
VH: QVQLVQSGAEVKKPGASVKVSCKASGYTFTSYGISWVRQAPGQGLEWVGVINPNGGTTTYAQTFQGRVTMTRDTSTSTVYMELSSLRSEDTAVYYCARTGYSSGWAFDYWGRGTLVTVSS
VL: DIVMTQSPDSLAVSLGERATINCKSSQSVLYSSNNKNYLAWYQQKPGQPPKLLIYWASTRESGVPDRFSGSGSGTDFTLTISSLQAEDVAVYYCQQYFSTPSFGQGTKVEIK
B7: 9D11/67H9 (antibody, human IgG1, V domains shown)
VH: QVQLVQSGAEVKKPGASVKVSCKASGYTFTSYGISWVRQAPGQGLEWVGVINPNGGTTTYAQTFQGRVTMTRDTSTSTVYMELSSLRSEDTAVYYCARTGYSSGWAFDYWGRGTLVTVSS
VL: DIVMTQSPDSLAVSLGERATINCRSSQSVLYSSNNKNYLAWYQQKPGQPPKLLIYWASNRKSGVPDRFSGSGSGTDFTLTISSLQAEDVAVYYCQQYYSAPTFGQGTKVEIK
notes: 9D11 VH with 67H9 VL
B8: 9D11/67C6 (antibody, human IgG1, V domains shown)
VH: QVQLVQSGAEVKKPGASVKVSCKASGYTFTSYGISWVRQAPGQGLEWVGVINPNGGTTTYAQTFQGRVTMTRDTSTSTVYMELSSLRSEDTAVYYCARTGYSSGWAFDYWGRGTLVTVSS
VL: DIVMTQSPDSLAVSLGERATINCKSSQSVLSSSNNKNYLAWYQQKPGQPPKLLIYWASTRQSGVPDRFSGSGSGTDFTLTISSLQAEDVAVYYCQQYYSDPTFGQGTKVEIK
notes: 9D11 VH with 67C6 VL
B9: 9D11/67G3 (antibody, human IgG1, V domains shown)
VH: QVQLVQSGAEVKKPGASVKVSCKASGYTFTSYGISWVRQAPGQGLEWVGVINPNGGTTTYAQTFQGRVTMTRDTSTSTVYMELSSLRSEDTAVYYCARTGYSSGWAFDYWGRGTLVTVSS
VL: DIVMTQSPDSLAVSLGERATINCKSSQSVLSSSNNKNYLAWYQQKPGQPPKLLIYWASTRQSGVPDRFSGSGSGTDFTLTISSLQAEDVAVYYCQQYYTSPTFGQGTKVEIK
notes: 9D11 VH with 67G3 VL
B10: 15B11/15B11 (antibody, V domains shown)
VH: QVQLVQSGAEVKKPGASVKVSCKASGYTFTGYYIHWVRQAPGQGLEWMGWMNPHSGHTGYAQNLQGRVTMTRDTSTSTVYMELSSLRSEDTAVYYCARVKVTTGFDYWGQGTLVTVSS
VL: not shown

Experiments:
human B7-H4-his = target: T1, human B7-H4-his; test: SPR (Biacore)
Experimental: (§1) Surface plasmon resonance experiments were performed using a Biacore T200 instrument equipped with CM5 sensor chips. The system was equilibrated in running buffer HBS-EP pH 7.4. The ligands were immobilized using amine-coupling chemistry. The surfaces of flow cells one through four were activated for 5 min using an amine coupling kit at a flow rate of […]. The ligands (human B7-H4-Fc, human B7-H4-hism and mouse B7-H4-Fc; at a concentration of 5 μg/ml in 10 mM sodium acetate, pH 5.0) were immobilized at a density of 50-100 RU on flow cell 2, 3, 4 respectively. Flow cell 1 was left blank to serve as a reference surface. All flow cell surfaces were blocked with a 5 min injection of 1 M ethanolamine, pH 8.0. To collect kinetic binding data, the respective analyte (diluted in 1×HBS-EP buffer, pH 7.4) was injected over the four flow cells at concentrations of 100 nM to 0.1 nM at a flow rate of […] and at a temperature of 25° C. The protein complex was allowed to associate and dissociate for 180 seconds and 1000 or 1200 seconds, respectively. The surfaces were regenerated with a 30 second injection of 1.5 M NaCl/0.05 M NaOH. The data were fit to a simple 1:1 interaction model using the Langmuir fit option available within the Biaevaluaton software
(§2) The kinetics for binding of the different antibodies to their targets were examined using Biacore analysis.

mouse B7-H4-his = target: T2, mouse B7-H4-his; test: SPR (Biacore)
mouse B7-H4-Fc [1] = target: T7, mouse B7-H4-Fc (mouse; human); test: ELISA, coated mB7-H4-Fc
T7 construct: also called mB7-H4-Fc; mB7-H4-hFc
Experimental: (§3) About 1-2 μg/ml of human or mouse B7-H4-Fc (or his-tagged) was immobilized on ELISA plates (Immuno 2HB, Thermo scientific, cat #3455) at 4° C. overnight. After blocking the plates with 3% PBS+milk, serial diluted antibodies were added to the blocked plates and incubated at RT for 1-1.5 h. After washing the plates with PBS-T (0.05%), horse radish peroxidase (HRP)-conjugated antibody targeting the hFab was added to the plate. Signals were developed by adding 3,3′,5,5′-Tetramethylbenzidine (TMB (followed 1N of H₂SO₄ to stop the reaction. The OD at 450 nm was read by ELISA plate reader (Infinite M1000 from TECAN). GraphPad from Prism was used to plot OD450 vs. antibody concentration curve and to calculate the EC50 values.

human B7-H4-Fc = target: T8, human B7-H4-Fc (human); test: SPR (Biacore)
T8 construct: also called hB7-H4-Fc; hB7-H4 Fc
Experimental: as §1, §2

mouse B7-H4-Fc [2] = target: T7, mouse B7-H4-Fc; test: SPR (Biacore)
[3] = target: T9, IgV domain of human B7-H4-Fc (human); test: ELISA, coated hB7-H4 IgV domain
T9 construct: also called hB7-H4 IgV domain
Experimental: as §3

[4] = target: T10, IgV domain of mouse B7-H4-Fc (mouse; human); test: ELISA, coated mB7-H4 IgV domain
T10 construct: also called mB7-H4 IgV domain
Experimental: as §3

[5] = target: T3, hB7-H4 (soluble human B7-H4, construct …); test: ELISA, hB7-H4
Experimental: as §3

[6] = target: T3, hB7-H4 (soluble human B7-H4, construct …); test: SPR (Biacore)
Experimental: as §1

[7] = target: T4, mB7-H4 (soluble mouse B7-H4, construct …); test: SPR (Biacore)
Experimental: as §1

[8] = target: T4, mB7-H4 (soluble mouse B7-H4, construct …); test: ELISA, mB7-H4
Experimental: as §3

[9] = target: T5, human B7-H4 expressed on cells; test: flow cytometry, SK-BR-3 cells
Experimental: (§4) Cells were harvested, washed once, and then re-suspended to the concentration of 1×10⁶ cells/ml in ice cold FACS Buffer. 25 μl of cell suspension was added to each well of a 96-well round-bottom microliter plate. Serially diluted antibodies or fusion proteins were added to each well and incubated for 1 hour at 4° C. Cells were washed three times by centrifugation at 1500 rpm for 5 minutes, and then stained with secondary antibody (1:200 dilution) for 30 min at 4° C. in the dark. Cells were washed once, re-suspended in 100 μl PBS buffer and then analyzed using Guava Flow Cytometry EasyCyte system.

[10] = target: T6, mouse B7-H4 expressed on cells; test: flow cytometry, mB7-H4/CT26 cells
Experimental: as §4

T8 sequence (chain, as listed by the source): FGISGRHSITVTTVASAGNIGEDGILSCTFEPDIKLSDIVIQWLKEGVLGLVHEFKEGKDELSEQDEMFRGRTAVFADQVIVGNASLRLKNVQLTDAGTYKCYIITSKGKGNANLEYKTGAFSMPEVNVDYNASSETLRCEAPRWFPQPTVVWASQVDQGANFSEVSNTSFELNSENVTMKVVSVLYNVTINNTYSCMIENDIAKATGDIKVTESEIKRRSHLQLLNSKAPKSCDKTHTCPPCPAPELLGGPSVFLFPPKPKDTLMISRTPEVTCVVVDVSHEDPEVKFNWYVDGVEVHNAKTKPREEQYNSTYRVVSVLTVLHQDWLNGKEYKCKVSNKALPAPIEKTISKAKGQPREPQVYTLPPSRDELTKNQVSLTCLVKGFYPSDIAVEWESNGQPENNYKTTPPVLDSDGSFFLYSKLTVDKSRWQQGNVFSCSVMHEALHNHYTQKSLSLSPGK
T7 sequence (chain, as listed by the source): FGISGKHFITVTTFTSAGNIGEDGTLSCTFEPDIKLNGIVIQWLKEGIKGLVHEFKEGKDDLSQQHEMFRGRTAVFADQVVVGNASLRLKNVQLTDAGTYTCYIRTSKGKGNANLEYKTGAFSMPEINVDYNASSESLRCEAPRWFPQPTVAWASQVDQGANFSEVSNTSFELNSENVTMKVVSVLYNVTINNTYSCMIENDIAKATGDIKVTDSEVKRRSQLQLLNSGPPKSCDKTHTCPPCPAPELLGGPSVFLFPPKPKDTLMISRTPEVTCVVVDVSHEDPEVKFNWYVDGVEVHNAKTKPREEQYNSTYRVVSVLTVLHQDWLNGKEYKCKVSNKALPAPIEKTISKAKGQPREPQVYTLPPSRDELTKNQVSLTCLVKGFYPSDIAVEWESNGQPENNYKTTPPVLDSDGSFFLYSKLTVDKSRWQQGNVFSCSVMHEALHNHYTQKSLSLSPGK
T9 sequence (chain, as listed by the source): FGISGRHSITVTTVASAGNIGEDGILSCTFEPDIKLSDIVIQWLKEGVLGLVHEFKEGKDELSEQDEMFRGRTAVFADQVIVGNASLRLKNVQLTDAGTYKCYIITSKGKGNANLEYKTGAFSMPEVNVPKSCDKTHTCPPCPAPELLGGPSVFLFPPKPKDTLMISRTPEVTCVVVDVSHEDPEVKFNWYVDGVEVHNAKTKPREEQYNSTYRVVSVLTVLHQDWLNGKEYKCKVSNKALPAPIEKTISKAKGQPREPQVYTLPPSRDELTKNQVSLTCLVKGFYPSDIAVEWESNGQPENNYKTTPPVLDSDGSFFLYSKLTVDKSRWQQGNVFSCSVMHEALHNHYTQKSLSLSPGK
T10 sequence (chain, as listed by the source): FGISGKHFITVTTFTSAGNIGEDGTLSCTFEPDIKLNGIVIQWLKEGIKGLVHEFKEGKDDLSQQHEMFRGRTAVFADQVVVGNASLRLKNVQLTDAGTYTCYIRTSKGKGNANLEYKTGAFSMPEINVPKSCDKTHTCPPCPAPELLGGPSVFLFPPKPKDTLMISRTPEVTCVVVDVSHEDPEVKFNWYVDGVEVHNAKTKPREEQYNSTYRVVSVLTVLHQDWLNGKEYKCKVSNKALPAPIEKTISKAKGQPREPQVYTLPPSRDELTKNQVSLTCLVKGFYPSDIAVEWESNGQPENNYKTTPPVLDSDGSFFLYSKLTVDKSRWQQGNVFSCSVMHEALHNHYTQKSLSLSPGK

Row | Binder | Kd (human B7-H4-his) [nM] | Kd (mouse B7-H4-his) [nM] | binding result (mouse B7-H4-Fc [1]) | Kd (human B7-H4-Fc) [nM] | Kd (mouse B7-H4-Fc [2]) [nM] | binding result [3] | binding result [4] | EC50 [5] [nM] | Kd [6] [nM] | Kd [7] [nM] | EC50 [8] [nM] | EC50 [9] [nM] | EC50 [10] [nM]
1 | B1 | 194 | 29.2 | binds | – | – | – | – | – | – | – | – | – | –
2 | B2 | 7.91 | 12.4 | – | 13.7 | 10.6 | no binding (tested: 20 nM) | no binding (tested: 20 nM) | – | – | – | – | – | –
3 | B3 | 5.19 | 7.83 | – | 12.1 | 13.1 | no binding (tested: 20 nM) | no binding (tested: 20 nM) | – | – | – | – | – | –
4 | B4 | 5.3 | 3.4 | binds | – | – | – | – | – | – | – | – | – | –
5 | B5 | 6.05 | 6.38 | binds | – | – | – | – | – | – | – | – | – | –
6 | B6 | 0.85 | 1.52 | – | 1.8 | 0.642 | – | – | 0.18 | 5.97 | 4.78 | 0.104 | 126 | 122
7 | B7 | – | – | – | – | – | – | – | 0.1 | 7.09 | 6.08 | 0.105 | 24 | 54.3
8 | B8 | – | – | binds | – | – | – | – | 0.115 | 15 | 2.8 | 0.082 | 9.2 | 45.7
9 | B9 | – | – | binds | – | – | – | – | 0.261 | 10.6 | 8.46 | 0.162 | 22.5 | 45.3
10 | B10 | 5.17 | 6.17 | – | 4.26 | 3.55 | – | – | – | – | – | – | – | –
